Experimental data as given in paper PMC4835898 (Frontiers in Microbiology, 2016).
Values belong to the binder of their own block, whether it stands above or below them.

Tests used:
[1] = target: T1, Bacillus subtilis DnaK wild type, 6xHis-tagged (Bacillus subtilis 168, UniProt P17820 1-611, to some extent phosphorylated (phosphotyrosine signal) during heterologous expression in E. coli; residues and extent not told for this preparation); assay: pull-down; 100 ug 6xHis-DnaK (WT or Y601F) and 100 ug Strep-tagged DnaJ or GrpE incubated with 1 ug anti-6xHis antibody (HIS.H8) in 450 uL IP Lysis/Wash Buffer (Pierce Classic IP Kit); captured on Protein A/G agarose; eluates blotted with anti-Strep tag and anti-His tag; settings: both partners purified
T1 construct: probably the whole ORF, since Y601 lies near the C-terminus; also called DnaK WT; WT DnaK; source: E. coli (NEB Express Iq), purified (Ni-NTA, desalted on PD-10); not shown: 6xHis, N-terminal, kept

[2] = target: T2, Bacillus subtilis DnaK Y601F, 6xHis-tagged (Bacillus subtilis 168, UniProt P17820 1-611, Y601F, to some extent phosphorylated during heterologous expression in E. coli (on residues other than 601); residues not told for this preparation); assay: as above; settings: both partners purified
T2 construct: the mutant is described as a version of the same protein in the same vector; source: E. coli (NEB Express Iq), purified (Ni-NTA, desalted on PD-10); not shown: 6xHis, N-terminal, kept

- binding result [1]: binds
- binding result [2]: binds
B1: Bacillus subtilis GrpE, Strep-tagged (natural protein, Bacillus subtilis 168, UniProt P15874 1-187, looked up)
chain: MSEEKQTVEQNETEEQEIIEEQAAADEQQEETNESELLQNQINELQGLLEEKENKLLRVQADFENYKRRSRLEMEASQKYRSQNIVTDLLPALDSFERALQVEADNEQTKSLLQGMEMVHRQLVEALKKEGVEAIEAVGQEFDPNLHQAVMQAEDENYGSNIVVEEMQKGYKLKDRVIRPSMVKVNQ
notes: Made in a pQE-30 vector in which the His-tag was replaced by a strep-tag (Jers et al., 2010)

- binding result [1]: binds
- binding result [2]: binds
B2: Bacillus subtilis DnaJ, Strep-tagged (natural protein)
chain: not shown
notes: as for B1
